T1: MBP-CsMYB15 (Citrus sinensis Osbeck ('Lane Late' …, UniProt A0A7G7YA61 1-267))
T1 sequence: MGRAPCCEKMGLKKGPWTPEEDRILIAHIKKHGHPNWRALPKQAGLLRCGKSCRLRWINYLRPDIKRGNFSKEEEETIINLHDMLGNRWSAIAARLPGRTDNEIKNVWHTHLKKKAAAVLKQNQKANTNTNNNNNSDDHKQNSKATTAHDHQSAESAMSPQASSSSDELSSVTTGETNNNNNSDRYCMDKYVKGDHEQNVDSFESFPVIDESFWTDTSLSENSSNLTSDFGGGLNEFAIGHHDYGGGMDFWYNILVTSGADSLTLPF

B1: proCs4CL2 probe (dsDNA)
DNA 1: GCAAAAATAACTCACCATCCCCTTTGCTTCCC
DNA 2: GGGAAGCAAAGGGGATGGTGAGTTATTTTTGC
B2: proCs4CL2 unlabeled competitor (dsDNA)
DNA 1: B1 DNA 1
DNA 2: B1 DNA 2

Legend:
MBP-CsMYB15 [1] = target: T1, MBP-CsMYB15; experiment: EMSA; not stated (EMSA as in Shi et al., 2020 with minor modifications); conditions: protein: recombinant; tags: MBP; label: 5' FAM on S18; blunt
MBP-CsMYB15 [2] = target: T1, MBP-CsMYB15; experiment: competition; dose-dependent competition against FAM probe N1; not stated (EMSA as in Shi et al., 2020 with minor modifications); conditions: protein: recombinant; tags: MBP; blunt

Binder | binding result (MBP-CsMYB15 [1]) | binding result (MBP-CsMYB15 [2])
B1 | binds | 
B2 |  | binds
